Target: GCN4pLI-HCN2(CNBD) tetramer (human)
Assay: SEC; GCN4pLI-HCN2(CNBD) in solution; column and buffer not told for this run

stoichiometry N: 4
Substance: GCN4pLI-HCN2(CNBD) tetramer

From PMC5115869
